T1: Celery (Api g 1, MyBiosource, Cat #MBS1171376) (Celery, UniProt P49372 1-154, limits assumed)
T1 construct: Bought reagent
T1 sequence (looked up): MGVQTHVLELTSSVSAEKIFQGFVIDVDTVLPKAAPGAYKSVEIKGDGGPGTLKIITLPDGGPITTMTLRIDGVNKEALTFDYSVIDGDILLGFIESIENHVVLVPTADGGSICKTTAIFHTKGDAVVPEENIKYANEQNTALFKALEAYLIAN

T2: Alder (Aln g 1, MyBiosource, Cat #MBS1041484) (Alder, UniProt P38948 2-160, limits assumed)
T2 construct: Bought reagent
T2 sequence (looked up): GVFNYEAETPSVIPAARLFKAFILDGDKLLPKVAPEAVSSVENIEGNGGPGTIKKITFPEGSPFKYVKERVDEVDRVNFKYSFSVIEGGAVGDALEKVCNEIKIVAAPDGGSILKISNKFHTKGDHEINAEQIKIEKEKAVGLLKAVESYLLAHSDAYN

T3: CHO produced recombinant Bet v 1 containing a S85A mutation with a C-terminal myc-myc hexahistidine tag … (Betula verrucosa (birch))
T3 chain: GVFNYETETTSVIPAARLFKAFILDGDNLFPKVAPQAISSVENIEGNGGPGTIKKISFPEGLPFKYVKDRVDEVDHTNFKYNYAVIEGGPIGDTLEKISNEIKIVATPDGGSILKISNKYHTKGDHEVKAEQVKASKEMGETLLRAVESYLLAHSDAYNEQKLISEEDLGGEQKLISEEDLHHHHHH

T4: European Hornbeam (Car b 1 isoform 2, MyBiosource, Cat #MBS1043940) (European Hornbeam, UniProt P38950 2-160, limits assumed)
T4 construct: Bought reagent
T4 sequence (looked up): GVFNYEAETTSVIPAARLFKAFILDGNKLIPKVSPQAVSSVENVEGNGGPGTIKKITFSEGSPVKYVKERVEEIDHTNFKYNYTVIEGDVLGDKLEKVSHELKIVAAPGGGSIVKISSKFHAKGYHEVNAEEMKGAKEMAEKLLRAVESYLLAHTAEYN

T5: Apple (Mal d 1, MyBiosource, Cat #MBS1224919) (Apple, UniProt P43211 2-159, limits assumed)
T5 construct: Bought reagent
T5 sequence (looked up): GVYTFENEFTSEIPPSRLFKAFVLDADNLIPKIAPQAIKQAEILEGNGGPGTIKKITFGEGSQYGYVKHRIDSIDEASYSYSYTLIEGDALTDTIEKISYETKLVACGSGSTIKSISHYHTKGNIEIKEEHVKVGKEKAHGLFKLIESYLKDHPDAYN

T6: European Hornbeam (Car b 1 isoform 1A & 1B, MyBiosource, Cat #MBS1200018) (European Hornbeam, UniProt P38949 2-160)
T6 construct: Bought reagent
T6 sequence (looked up): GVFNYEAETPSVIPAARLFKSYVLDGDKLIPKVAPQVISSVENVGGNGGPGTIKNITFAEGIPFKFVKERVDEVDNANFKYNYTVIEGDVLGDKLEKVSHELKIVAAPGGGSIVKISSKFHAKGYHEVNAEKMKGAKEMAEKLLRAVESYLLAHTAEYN

B1: H4H17031P (antibody, human IgG4, V domains shown)
VH: QVQLQQWGAGLLKPSETLSLTCVVYGESFGNYHWNWIRQSPGKRLEWIGEINQNGHTNYNPSLKSRVTISVDTSKIQFSLRLNSVTAADTAVYFCARGHNYVNSYFGLDVWGQGTTVTVSS
VL: EIVMTQSPATLSVSPGERATLSCRTSQSVSISLAWYQRKPGQAPRLLIFGSSTRATGVPARFSGSGSGTEFTLTISSLQSEDFAVYYCQQYNNWPYTFGQGTKLEIK
notes: Fully human antibody with human IgG4 Fc (H4H prefix)
B2: H4H17067P2 (antibody, human IgG4, V domains shown)
VH: EVQLVQSGAEVKKPGESLKISCSGSGYRFTNYWIAWVRQMPGKGLEWMGLIHPDDSDIRYSPSFQGQVTFSVDKSINTAYLQWSSLKASDTAMYYCTRQDGILWSHNAWFDPWGQGTLVTVSS
VL: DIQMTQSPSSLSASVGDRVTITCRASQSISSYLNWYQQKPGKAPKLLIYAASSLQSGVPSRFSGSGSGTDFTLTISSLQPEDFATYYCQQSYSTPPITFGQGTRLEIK
notes: as for B1
B3: H4H17033P (antibody, human IgG4, V domains shown)
VH: QVQLVQSGAEVKKPGASVKVSCKASGYTFAAHYMHWVRQAPGQGLEWMGWINTYTGGTNYGQKFQGRVTMTRDTSITTAYMELSRLRSDDTAVYYCARDRRNWNFVFEYWGQGTLVTVSS
VL: DIQMTQSPSSLSASVGDRVTISCRASQNIKNYLNWYQQKPGKAPKLLIYEASNLQSGAPSRFSGSGSGTDFTLTISSLEPEDFATYYCQQSFSIPWTFGQGTKVEIK
notes: as for B1
B4: H4H17045P2 (antibody, human IgG4, V domains shown)
VH: EVQLVESGGGLVQPGVSLRLSCVASGFTFSNYDITWIRQIPGKGLEWVSRISGSGGSTYFADSVKGRFIISRDNSKNTVYMQMNSLRAEDSAVYYCARRDSVLFSMNSWLDPWGQGTLVTVSS
VL: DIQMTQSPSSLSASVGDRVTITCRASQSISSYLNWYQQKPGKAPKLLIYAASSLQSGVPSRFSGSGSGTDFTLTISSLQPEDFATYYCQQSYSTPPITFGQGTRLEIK
notes: as for B1
B5: H4H17038P2 (antibody, human IgG4 S228P, kappa, V domains shown)
VH: EVQLVESGGDLVQPGGSLRLSCAASGFTFSSYEMNWVRQAPGKGLEWVSFISDSSSNIYYADSVKGRFTISRDNAKKSLYLQMTSLRAEDTAVYYCAREAIGSTSFDNWGQGTLVTVSS
VL: EIVMTQSPATLSVSPGERATLSCRASQSVSSSLAWYQQKPGQAPRRLIYSASTRATGIPARFSGSGSGTEFTLTISSLQSEDFAIYYCHQYNNWPLTFGGGTKVEIKR
notes: human IgG4 Fc; also called REGN5714; MAB3
B6: H4H17028P (antibody, human IgG4, V domains shown)
VH: QVQLVESGGGVVQPGRSLRLSCAASGFTFSRYAIHWVRQAPGKGLEWVAVISYDGDDKYYGDSVKGRFTISRDNSKTMVYLHMNSLRTEDTAVYYCAKDGYSLYGKDYFDYWGQGTLVTVSS
VL: EIVLTQSPGTLPLSPGERATLSCRASQSITNSYLAWYQQKPDQAPRLLIYGASSRATGIPDRFSGSESGTDFTLTISRLEPEDFAVYYCQQYVRSPWTFGQGTKVEIK
notes: as for B1

Biological target: T1, Celery (Api g 1, MyBiosource, Cat …)
Experiment: SPR, mAb captured via anti-hFc, 25 C
Procedure: (§1) Equilibrium dissociation constants (KD) for different related allergens binding to purified anti-Bet v 1 monoclonal antibodies were determined using a real-time surface plasmon resonance biosensor (SPR-Biacore) on a Biacore 4000 instrument. All binding studies were performed in 10 mM HEPES, 150 mM NaCl, 3 mM EDTA, and 0.05% v/v surfactant Tween-20, pH 7.4 (HBS-ET) running buffer at 25° C. […] Binding studies were performed on the following related allergens: Alder (Aln g 1, MyBiosource, Cat #MBS1041484), Apple (Mal d 1, MyBiosource, Cat #MBS1224919), Carrot (Dau c 1.2, MyBiosource, Cat #MBS1212920), Celery (Api g 1, MyBiosource, Cat #MBS1171376), Celery (Api g 2, MyBiosource, Cat #MBS1047880), European Hornbeam (Car b 1 isoform 1A & 1B, MyBiosource, Cat #MBS1200018), European Hornbeam (Car b 1 isoform 2, MyBiosource, Cat #MBS1043940), Hazel (Cor A 1, MyBiosource, Cat #MBS5304600), and White Oak (Que a 1, MyBiosource, Cat #MBS1258822). […] Association (kₐ) and dissociation (kd) rate constants were determined by fitting the real-time binding sensorgrams to a 1:1 binding model with mass transport limitation using Scrubber 2.0c curve-fitting software. Binding dissociation equilibrium constants (KD) and dissociative half-lives (t½) were calculated from the kinetic rate constants as:

Row | 100 nM Analyte Bound (RU) | binding result | Kd [nM] | koff [s⁻¹] | kon [M⁻¹ s⁻¹] | t½ [min] | Binder
1 | 0 | no binding (tested: 100 nM) | – | – | – | – | B1
2 | 0 | no binding (tested: 100 nM) | – | – | – | – | B2
3 | 39 | – | 167 | 0.0791 | 475000 | 0.2 | B3
4 | 0 | no binding (tested: 100 nM) | – | – | – | – | B4
5 | -1 | – | – | – | – | – | B5
6 | 1 | no binding (tested: 100 nM) | – | – | – | – | B6

Biological target: T2, Alder (Aln g 1, MyBiosource, Cat …)
Experiment: SPR, mAb captured via anti-hFc, 25 C
Procedure: as §1

Row | 100 nM Analyte Bound (RU) | Kd [nM] | koff [s⁻¹] | kon [M⁻¹ s⁻¹] | t½ [min] | binding result | Binder
7 | 59 | 45 | 0.00238 | 52900 | 4.8 | – | B1
8 | 2 | – | – | – | – | no binding (tested: 100 nM) | B2
9 | 3 | – | – | – | – | no binding (tested: 100 nM) | B3
10 | 0 | – | – | – | – | no binding (tested: 100 nM) | B4
11 | 2 | – | – | – | – | no binding (tested: 100 nM) | B5
12 | 16 | 36.7 | 0.0019 | 51700 | 6.1 | – | B6

Biological target: T3, CHO produced recombinant Bet v 1 …
Experiment: SPR, mAb captured via anti-hFc, 37 C
Procedure: (§2) Equilibrium dissociation constants (KD) for natural Bet v 1 binding to purified anti-Bet v 1 monoclonal antibodies were determined using a real-time surface plasmon resonance biosensor (SPR-Biacore) on a Biacore 4000 instrument. All binding studies were performed in 10 mM HEPES, 150 mM NaCl, 3 mM EDTA, and 0.05% v/v surfactant Tween-20, pH 7.4 (HBS-ET) running buffer at 25° C. and 37° C. […] Association (kₐ) and dissociation (kd) rate constants were determined by fitting the real-time binding sensorgrams to a 1:1 binding model with mass transport limitation using Scrubber 2.0c curve-fitting software. Binding dissociation equilibrium constants (KD) and dissociative half-lives (t½) were calculated from the kinetic rate constants as:

Row | 100 nM natural Bet v 1-MHH Bound (RU) | Kd [nM] | koff [s⁻¹] | kon [M⁻¹ s⁻¹] | t½ [min] | Binder
13 | 71 | 14.6 | 0.00406 | 278000 | 2.8 | B1
14 | 76 | 16.9 | 0.00428 | 253000 | 2.7 | B2
15 | 79 | 1.34 | 0.00118 | 883000 | 9.8 | B3
16 | 84 | 14.3 | 0.00232 | 162000 | 5 | B4
17 | 56 | 35.6 | – | – | 0.39 | B5
18 | 77 | 2.32 | 0.00235 | 1.01e+06 | 4.9 | B6

Biological target: T3, CHO produced recombinant Bet v 1 …
Experiment: SPR, mAb captured via anti-hFc, 25 C
Procedure: as §2

Row | 100 nM natural Bet v 1- MMH Bound (RU) | Kd [nM] | koff [s⁻¹] | kon [M⁻¹ s⁻¹] | t½ [min] | Binder
19 | 63 | 5.61 | 0.00105 | 187000 | 11 | B1
20 | 55 | 11.7 | 0.00117 | 100000 | 9.9 | B2
21 | 67 | 0.768 | 0.000415 | 540000 | 28 | B3
22 | 60 | 6.23 | 0.000498 | 80000 | 23 | B4
23 | 63 | 9.98 | – | – | 1.8 | B5
24 | 71 | 0.854 | 0.000693 | 811000 | 17 | B6

Biological target: T4, European Hornbeam (Car b 1 isoform 2, …)
Experiment: SPR, mAb captured via anti-hFc, 25 C
Procedure: as §1

Row | 100 nM Analyte Bound (RU) | Kd [nM] | koff [s⁻¹] | kon [M⁻¹ s⁻¹] | t½ [min] | binding result | Binder
25 | 160 | 13.1 | 0.00517 | 395000 | 2.2 | – | B1
26 | 1 | – | – | – | – | no binding (tested: 100 nM) | B2
27 | 111 | 33.4 | 0.0447 | 1.34e+06 | 0.3 | – | B3
28 | 5 | – | – | – | – | no binding (tested: 100 nM) | B4
29 | – | 50.5 | – | – | 1.8 | – | B5
30 | 95 | 45 | 0.00437 | 97100 | 2.6 | – | B6

Biological target: T5, Apple (Mal d 1, MyBiosource, Cat …)
Experiment: SPR, mAb captured via anti-hFc, 25 C
Procedure: as §1

Row | 100 nM Analyte Bound (RU) | binding result | Binder
31 | 0 | no binding (tested: 100 nM) | B1
32 | -1 | – | B2
33 | 1 | no binding (tested: 100 nM) | B3
34 | -1 | – | B4
35 | -1 | – | B5
36 | 1 | no binding (tested: 100 nM) | B6

Biological target: T6, European Hornbeam (Car b 1 isoform 1A & …)
Experiment: SPR, mAb captured via anti-hFc, 25 C
Procedure: as §1

Row | 100 nM Analyte Bound (RU) | Kd [nM] | koff [s⁻¹] | kon [M⁻¹ s⁻¹] | t½ [min] | binding result | Binder
37 | 126 | 13.8 | 0.00111 | 80400 | 10 | – | B1
38 | 0 | – | – | – | – | no binding (tested: 100 nM) | B2
39 | 0 | – | – | – | – | no binding (tested: 100 nM) | B3
40 | 5 | – | – | – | – | no binding (tested: 100 nM) | B4
41 | 105 | 41.4 | – | – | 1.9 | – | B5
42 | 159 | 2.43 | 0.000511 | 210000 | 23 | – | B6

— patent US20240083986A1 (published 2024)
